Molecular target: mouse VLDLR (skeletal muscle) (mouse) (UniProt P98156)
Experiment: cell-based or functional assay

mouse VLDLR (skeletal muscle) (mouse), sequence (P98156 28-873): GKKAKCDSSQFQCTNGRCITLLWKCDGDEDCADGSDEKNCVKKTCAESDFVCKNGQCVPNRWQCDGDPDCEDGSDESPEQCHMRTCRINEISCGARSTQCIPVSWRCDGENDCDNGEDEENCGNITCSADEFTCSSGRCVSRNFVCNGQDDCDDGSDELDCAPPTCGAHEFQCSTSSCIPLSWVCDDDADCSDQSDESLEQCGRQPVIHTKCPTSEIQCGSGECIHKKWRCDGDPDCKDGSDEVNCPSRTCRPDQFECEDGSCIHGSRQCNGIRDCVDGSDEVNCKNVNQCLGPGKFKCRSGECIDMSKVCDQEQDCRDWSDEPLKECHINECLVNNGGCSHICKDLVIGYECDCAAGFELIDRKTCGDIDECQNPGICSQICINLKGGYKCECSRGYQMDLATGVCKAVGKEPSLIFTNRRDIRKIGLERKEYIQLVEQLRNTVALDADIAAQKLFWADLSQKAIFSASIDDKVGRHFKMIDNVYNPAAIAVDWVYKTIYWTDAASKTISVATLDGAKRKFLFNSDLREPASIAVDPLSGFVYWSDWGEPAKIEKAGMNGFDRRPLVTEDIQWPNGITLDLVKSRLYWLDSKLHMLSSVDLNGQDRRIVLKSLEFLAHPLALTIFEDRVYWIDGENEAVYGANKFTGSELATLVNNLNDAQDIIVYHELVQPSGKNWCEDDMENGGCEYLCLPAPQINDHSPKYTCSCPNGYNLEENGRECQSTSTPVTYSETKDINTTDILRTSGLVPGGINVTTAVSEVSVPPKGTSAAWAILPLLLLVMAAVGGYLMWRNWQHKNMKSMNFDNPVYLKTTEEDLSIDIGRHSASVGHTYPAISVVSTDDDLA

- level of VLDLR in muscle of transgenic mice against non-transgenic control littermates: < 3 fold
Substance: wild type human PCSK9 with C-terminal V5 tag (from UniProt Q8NBP7 31-692) (enzyme)

From patent publication US20110003315A1
